One data set addresses MBP-BccP (S. flexneri) (UniProt P0ABE1).
The target of data set [1] is 6xHis-BioID R118G (Escherichia coli K-12) (UniProt P06709). As to the kind of experiment: EMSA. The note with it: 50 mM Tris-HCl pH 8.0, 1 mM EDTA, 50 mM NaCl, 1 mM ATP, 1 mM MgCl2, 1 uM biotin, 10% glycerol; 30 min room temperature; 5% PAGE in 0.5x TAE at 4 C.
For data set [2], the target named is 6xHis-BirA (Escherichia coli K-12) (UniProt P06709). The experiment in a line: EMSA. The note with it: 50 mM Tris-HCl pH 8.0, 1 mM EDTA, 50 mM NaCl, 1 mM ATP, 1 mM MgCl2, 1 uM biotin, 10% glycerol; 30 min room temperature; 5% PAGE in 0.5x TAE at 4 C. For orientation: In EMSA bound probe runs differently from free probe, usually more slowly.
Data set [3] relates to 6xHis-BioID (Escherichia coli K-12). As to the kind of experiment: EMSA. The conditions noted are these: 50 mM Tris-HCl pH 8.0, 1 mM EDTA, 50 mM NaCl, 1 mM ATP, 1 mM MgCl2, 1 uM biotin, 10% glycerol; 30 min room temperature; 5% PAGE in 0.5x TAE at 4 C.
Data set [4] concerns 6xHis-BirA (Escherichia coli K-12). As to the kind of experiment: EMSA. The note with it: 50 mM Tris-HCl pH 8.0, 1 mM EDTA, 50 mM NaCl, 1 mM ATP, 1 mM MgCl2, 1 uM biotin, 10% glycerol; 30 min room temperature; 5% PAGE in 0.5x TAE at 4 C.
Data set [5] has as its system 6xHis-TurboID (Escherichia coli K-12). As to the kind of experiment: EMSA. The note with it: 50 mM Tris-HCl pH 8.0, 1 mM EDTA, 50 mM NaCl, 1 mM ATP, 1 mM MgCl2, 1 uM biotin, 10% glycerol; 30 min room temperature; 5% PAGE in 0.5x TAE at 4 C.

In the data set with MBP-BccP (S. flexneri), “6×His-BioID (from UniProt P06709 1-321) (enzyme)” registered a midpoint (t^50) of the in vitro biotinylation of MBP-BccP; 20 nM biotin ligase, 2 µM BccP, 37°C, streptavidin-HRP blot of 3.4 min.

“6×His-TurboID (from UniProt P06709 1-321) (enzyme)” had a midpoint (t^50) of the in vitro biotinylation of MBP-BccP; 20 nM biotin ligase, 2 µM BccP, 37°C, streptavidin-HRP blot in the data set with MBP-BccP (S. flexneri) of 14.6 min.

Regarding “GCCATGGGGCTTCTCCAAAACGTGTTTTTTGTTGTTAATTCGGTGTAGGCTTGTAAACCTAAATCTTTTCAATTTGGTTTACAAGTCGATTATGACAACGGACGATCTTGCC (double strand) [biotin operator probe (112 bp)]”, the binding signal (% probe shifted at 50 nM protein) in data set [1] was 41; in data set [2], 93.

For biotin operator probe (112 bp), the binding signal (% probe shifted at 50 nM protein) stood at 41 in data set [3], 93 in data set [4] and 0.8 in data set [5].

Values taken from publication PMC11580435.
